This is an account of results in patent publication US20230279104A1 (KOREA RESEARCH INSTITUTE OF BIOSCIENCE AND BIOTECHNOLOGY, published 2023).

This test has as its target T1, human transmembrane 4 L6 family member 5 (TM4SF5) on cells (human, UniProt O14894 1-197).
T1 construct: whole, on cells; also called endogenous TM4SF5; TM4SF5 protein
T1 sequence (looked up): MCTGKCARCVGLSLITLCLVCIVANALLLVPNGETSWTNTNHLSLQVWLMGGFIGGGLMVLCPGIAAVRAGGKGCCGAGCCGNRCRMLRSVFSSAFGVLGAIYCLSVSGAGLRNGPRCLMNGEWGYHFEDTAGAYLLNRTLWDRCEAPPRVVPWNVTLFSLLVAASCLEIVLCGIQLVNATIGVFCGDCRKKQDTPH
Nature of the test: flow cytometry, internalization analysis on SNU449Tp cells. The procedure:
Cells were transferred to ice-cold buffer to stop the occurrence of internalization and stained with FITC-conjugated anti-human IgG. PI⁻ cells were analyzed by flow cytometry.
(In general: A flow cytometer gives signals particle by particle.)

B1: humanized monoclonal antibody Ab27-hz9 (scFv-hFc form) (antibody, V domains shown)
VH: QVQLVQSGAEVKKPGASVKVSCKASGYTFTDYEMHWVRQAPGQGLEWMGAIDPETGGTAYNQKFKGRVTMTADKSISTAYMELSRLRSDDTAVYYCARPYLGYWGQGTLVTVSS
VL: EIVLTQSPGTLSLSPGERATLSCRSSQSLVHSNGNTYLHWYQQKPGQAPRLLIYKVSNRFSGIPDRFSGSGSGTDFTLTISRLEPEDFAVYYCFQGSHIPLTFGQGTKVEIK
notes: VH and VK genes were synthesized in scFv format and inserted into the pDR-OriP-Fc1 vector, so the molecule tested is an scFv-human Fc fusion; Frameworks are IGHV1-2 and IGKV3-20 with murine residues kept at H71 and H73; also called humanized Ab27
For the molecule B1, the binding result was “binds”.
